# Literature values, collected in patent US20110020225A1, “POROUS POLYMER PARTICLES IMMOBILIZED WITH CHARGED MOLECULES AND METHOD FOR PREPARING THE SAME” (KOREA RESEARCH INSTITUTE OF BIOSCIENCE AND BIOTECHNOLOGY, priority 2007, published 2011).
# Conditions: negative charge at pH 7.4
molecule,measurement,value
"ovalbumin-fluorescent dye: ovalbumin-fluorescent dye (45 kDa, pI=4.6) having a negative charge at pH 7.4 (conjugate, UniProt P01012 2-386, looked up, fluorescent dye) Ovalbumin: GSIGAASMEFCFDVFKELKVHHANENIFYCPIAIMSALAMVYLGAKDSTRTQINKVVRFDKLPGFGDSIEAQCGTSVNVHSSLRDILNQITKPNDVYSFSLASRLYAEERYPILPEYLQCVKELYRGGLEPINFQTAADQARELINSWVESQTNGIIRNVLQPSSVDSQTAMVLVNAIVFKGLWEKAFKDEDTQAMPFRVTEQESKPVQMMYQIGLFRVASMASEKMKILELPFASGTMSMLVLLPDEVSGLEQLESIINFEKLTEWTSSNVMEERKIKVYLPRMKMEEKYNLTSVLMAMGITDVFSSSANLSGISSAESLKISQAVHAAHAEINEAGREVVGSAEAGVDAASVSEEFRADHPFLFCIKHIATNAVLFFGRCVSP",pI,4.6
